Substitutions are numbered along the chain they refer to. Numbers in names are those of the source.
Experiments:
[1] = Biosensor-linked O-methyltransferase activity assay; type: cell-based, Escherichia coli; details: single mutational designs; 25, 30, 37 °C; 100 uM, 1 mM norbelladine
Protocol: Nb4OMT was expressed with the P150-RBS (riboJ) promoter-RBS on the pReg-RamR plasmid backbone (no regulator present). Cells were co-transformed with both the 40MT plasmid and the 4NB reporter plasmid and plated on an LB agar plate containing appropriate antibiotics. Three individual colonies from each transformation were picked into LB and grown overnight. Resulting cultures were diluted 50-fold into 1 ml LB medium containing the indicated concentration of norbelladine in a 96-deep-well plate and were grown at the indicated temperature for 24 h. Subsequently, the fluorescence of cultures was measured in the same manner as previously described in Dose-response measurement above.

[2] = Differential scanning fluorimetry; type: physicochemical
Protocol: Purified Nb4OMT variants in the concentration of 5 μM were prepared in 96-well low-profile PCR plates (ABgene, Thermo Scientific). 10×SYPRO® Orange (Molecular Probes) was added into each well and mixed prior to measurement in an RT-PCR machine (LightCycler 480, Roche). The protein melting experiments were carried out with a continuous temperature acquisition mode using 10 acquisitions per 1° C. in each cycle from 20° C. to 95° C. The melting curves of the Nb4OMT variants were monophasic and Tm values were derived using Boltzmann equation.

[3] = Steady state kinetics of purified Nb4OMT variants; type: biochemical
Protocol: Reactions for kinetics measurements were performed in triplicate for all enzyme variants. For each variant 1.5 ml reactions containing 3.5 nM of enzyme, 500 μM SAM, 2 mM CaCl2), and 15.625, 31.25, 62.5, 125, 250, or 500 μM norbelladine in PBS pH 7.5 were incubated at 37° C. for 4 hours. Every hour a 200 μl aliquot of each reaction was quenched by pipetting it into a 1.5 ml microcentrifuge tube with 20 μl of 2M HCl. The concentration of 4′-O-Methylnorbelladine was then determined using HPLC as described.
Kinetic data were fit in KinTek Explorer simulation and data fitting software v11 (Roy, 2018). The following minimal model was used as an input. Each line represents a step in the model and the forward reaction goes from left to right while the reverse reaction goes from right to left as written. • (1) E+S=ES • (2) ES=EP • (3) EP=E+P • (4) S=P2
3.5 nM enzyme and 15.625, 31.25, 62.5, 125, 250, and 500 M substrate. The output observable was defined as EP+P. Substrate oxidation was modeled in step (4) as irreversible with a best fit value from globally fitting data from all variants to derive k4=0.00547 min^−1.To get kout/Km and kcat: k−1, k−2, and k−3 were locked at 0 min-1 (irreversible reactions). k+3 was locked at 10,000 min-1 as to not limit the rate of turnover. k+1 and k+2 were used as variable parameters in the fitting. Under these conditions, k+2=kcat and k+1=kcat/Km. For estimates of 95% confidence intervals on kinetic parameters, confidence contour analysis was used with the FitSpace function in KinTek Explorer (Bhattacharya, 2015). Confidence contour plots are calculated by systematically varying a single rate constant and holding it fixed at a particular value while refitting the data, allowing other rate constants to float. The goodness of fit was scored by the resulting χ^2 value. The confidence interval is defined based on a threshold in χ^2 calculated from the F-distribution based on the number of data points and number of variable parameters to give the 95% confidence limits. For the data given in FIGS. 20A-20C, this threshold was 0.85 to estimate the upper and lower limits for each parameter. […] We then fit the data for these two variants to the model shown below, accounting for substrate inhibition.
As before, k+1 was allowed to float in the fitting to give kcat/Km, and k−1 was locked at 0 min^−1, k+2 was allowed to float in the fitting to give kcat, and k−2 was locked at 0 min^−1. k+3 was locked at 10,000 min^−1, and k−3 was locked at 0 min^−1. k+4 and k+6 were locked at 100 μM^−1 min^−1, and k−4 and k−6 were allowed to float in the fitting as linked parameters. k+5 was linked to k+1 and k−5 was locked at 0 min^−1. k−7 was locked at 0 min^−1, and k+7 was locked at 0.00547 min^−1.

[4] = Sensitivity and selectivity of evolved RamR sensor variants; type: cell-based, Escherichia coli
Protocol: Cell culture (20 μl) bearing the sensor library was seeded into 5 ml fresh LB containing appropriate antibiotics, 100 μg ml-1 zeocin (Thermo Fisher, R25001) and 100 uM of norbelladine (for round two) and grown at 37° C. for 7 h. Following incubation, 0.5 μl of culture was diluted into 1 ml LB medium, from which 100 μl was further diluted into 900 μl LB medium. Three hundred microliters of this mixture was then plated across three LB agar plates (100 μL per plate) containing carbenicillin, chloramphenicol and 4NB dissolved in DMSO. Plates were incubated overnight at 37° C. The following day, the brightest colonies were picked and grown overnight in 1 ml LB medium containing appropriate antibiotics in a 96-deep-well plate sealed with an AeraSeal film at 37° C. A glycerol stock of cells containing pSELIS-RamR and pReg-RamR encoding the template RamR variant was also inoculated into 5 ml LB for overnight growth.
The following day, 20 μl of each culture was used to inoculate two separate wells in a new 96-deep-well plate containing 900 μl LB medium. Additionally, eight separate wells containing 1 ml LB medium were inoculated with 20 μl of the overnight culture expressing the parental RamR variant. After 2 h of growth at 37° C., the top half of the 96-well plate was induced with 100 μl LB medium containing 10 μl DMSO, whereas the bottom half of the plate was induced with 100 μl LB medium containing 4NB dissolved in 10 μl DMSO. The concentration of 4NB used for induction is typically the same concentration used in the LB agar plate for screening during that particular round of evolution. Cultures were grown for an additional 4 h at 37° C. and 250 r.p.m. and subsequently centrifuged (3,500 g, 4° C., 10 min). Supernatant was removed, and cell pellets were resuspended in 1 ml PBS. One hundred microliters of the cell resuspension for each condition was transferred to a 96-well microtiter plate, from which the fluorescence (excitation, 485 nm; emission, 509 nm) and absorbance (600 nm) were measured using the Tecan Infinite M1000 plate reader. Clones with the highest signal-to-noise ratio (generally the top 5-10% of the screened clones) were then sequenced and subcloned into a fresh pReg-RamR vector.
For sensor variant validation, the subcloned pReg-RamR vectors expressing the sensor variants were transformed into DH10B cells expressing Pramr-GFP. […]
Glycerol stocks (20% glycerol) of strains containing the plasmids of interest were inoculated into 1 ml LB medium and grown overnight at 37° C. […] The cell resuspension (100 μl) for each condition was transferred to a 96-well microtiter plate, from which the fluorescence (excitation, 485 nm; emission, 509 nm) and absorbance (600 nm) were measured using the Tecan Infinite M1000 plate reader.

B1: H17K: Nb4OMT variant with mutation H17K (protein)
chain: MGASIDDYSLVHKNILKSEDLLKYILETSAYPREHEQLKGLREVTEKHEWSSALVPADEGLFLSMLLKLMNAKRTIEIGVYTGYSLLTTALALPEDGKITAIDVNKSYYEIGLPFIQKAGVEHKINFIESEALPVLDQMLEEMKEEDLYDYAFVDADKSNYANYHERLVKLVRIGGAILYDNTLWYGSVAYPEYPGLHPEEEVARLSFRNLNTFLAADPRVEISQVSIGDGVTICRRLY
modifications: Description of sequence: Improved enzyme variant H17K
- fluorescent signal relative to the wild-type enzyme [1]: above wild-type in at least one tested condition

B2: E36P-G40E: Nb4OMT variant with mutations E36P and G40E (protein)
chain: B1 chain with K17H, E36P, G40E
modifications: Description of sequence: Improved enzyme variant E36P-G40E
- fluorescent signal relative to the wild-type enzyme [1]: above wild-type in at least one tested condition

B3: S159E: Nb4OMT variant with mutation S159E (protein)
chain: B1 chain with K17H, S159E
modifications: Description of sequence: Improved enzyme variant S159E
- fluorescent signal relative to the wild-type enzyme [1]: above wild-type in at least one tested condition

B4: H17R: Nb4OMT variant with mutation H17R (protein)
chain: B1 chain with K17R
modifications: Description of sequence: Improved enzyme variant H17R Mutation
- fluorescent signal relative to the wild-type enzyme [1]: above wild-type in at least one tested condition

B5: E36P/G40E/A53M mutant: Nb4OMT variant with mutations E36P, G40E and A53M (protein)
chain: B1 chain with K17H, E36P, G40E, A53M
- increase in Tm relative to the wild-type enzyme [2]: 5.6 °C
- Tm ([2]; 5 μM protein, SYPRO Orange): 58.4 °C
- kcat ([3]; 3.5 nM enzyme, 500 μM SAM, 37° C., PBS pH 7.5): >2 s⁻¹
- Km ([3]; calculated by dividing kcat by kcat/Km): < 83 µM
- substrate inhibition ([3]; steady state kinetic data, highest norbelladine concentration): affected by substrate inhibition

B6: V203E: Nb4OMT variant with mutation V203E (protein)
chain: B1 chain with K17H, V203E
modifications: Description of sequence: Improved enzyme variant V203E
- fluorescent signal relative to the wild-type enzyme [1]: above wild-type in at least one tested condition

B7: A53R: Nb4OMT variant with substitution A53R, predicted without docking (protein)
chain: B1 chain with K17H, A53R
- fluorescent signal relative to the wild-type enzyme [1]: reduced activity under all tested conditions

B8: 4NB1.2: RamR variant bearing two amino acid substitutions, K63T and L66M (protein)
chain: MVARPKSEDKKQALLEAATQAIAQSGIAASTAVIARNAGVAEGTLFRYFATKDELINTLYLHLTQDMCQSMIMELDRSITDAKMMTRFIWNSYISWGLNHPARHRAIRQLAVSEKLTKETEQRADDMFPELRDLCHRSVLMVFMSDEYRAFGDGLFLALAETTMDFAARDPARAGEYIALGFEAMWRALTREEQ
modifications: Description of sequence: Improved biosensor variant K63T, L66M
- selectivity for 4NB over norbelladine [4]: 20 fold

B9: 4NB2.1: evolved RamR biosensor variant, K63T, L66M, C134D and S137G (protein)
chain: B8 chain with C135D, S138G
modifications: Description of sequence: Improved biosensor variant K63T, L66M, C134D, S137G
- selectivity for 4NB over norbelladine [4]: over 80 fold
- sensitivity relative to the HPLC method [4]: approximately 10 fold
- limit of detection ([4]; 4NB): approximately 2.5 uM
